Assay results: IntAct's records for PubMed 18971339

B1: Interferon-induced, double-stranded RNA-activated protein kinase (Homo sapiens), P19525 (parent)
chain: MAGDLSAGFFMEELNTYRQKQGVVLKYQELPNSGPPHDRRFTFQVIIDGREFPEGEGRSKKEAKNAAAKLAVEILNKEKKAVSPLLLTTTNSSEGLSMGNYIGLINRIAQKKRLTVNYEQCASGVHGPEGFHYKCKMGQKEYSIGTGSTKQEAKQLAAKLAYLQILSEETSVKSDYLSSGSFATTCESQSNSLVTSTLASESSSEGDFSADTSEINSNSDSLNSSSLLMNGLRNNQRKAKRSLAPRFDLPDMKETKYTVDKRFGMDFKEIELIGSGGFGQVFKAKHRIDGKTYVIKRVKYNNEKAEREVKALAKLDHVNIVHYNGCWDGFDYDPETSDDSLESSDYDPENSKNSSRSKTKCLFIQMEFCDKGTLEQWIEKRRGEKLDKVLALELFEQITKGVDYIHSKKLIHRDLKPSNIFLVDTKQVKIGDFGLVTSLKNDGKRTRSKGTLRYMSPEQISSQDYGKEVDLYALGLILAELLHVCDTAFETSKFFTDLRDGIISDIFDKKEKTLLQKLLSKKPEDRPNTSEILRTLTVWKKSPEKNERHTC
partner: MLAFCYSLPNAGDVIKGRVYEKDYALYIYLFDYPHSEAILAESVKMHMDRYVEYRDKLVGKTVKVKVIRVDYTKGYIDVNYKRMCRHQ

Variants of: B1
Settings: with pg041_vaccc OPG041, P20639

Variant | effect of a mutation on the interaction
MAGDLSAGFFMEELNTYRQKQGVVLKYQELPNSGPPHDRRFTFQVIIDGREFPEGEGRSKKEAKNAAAKLAVEILNKEKKAVSPLLLTTTNSSEGLSMGNYIGLINRIAQKKRLTVNYEQCASGVHGPEGFHYKCKMGQKEYSIGTGSTKQEAKQLAAKLAYLQILSEETSVKSDYLSSGSFATTCESQSNSLVTSTLASESSSEGDFSADTSEINSNSDSLNSSSLLMNGLRNNQRKAKRSLAPRFDLPDMKETKYTVDKRFGMDFKEIELIGSGGFGQVFKAKHRIDGKTYVIKRVKYNNEKAEREVKALAKLDHVNIVHYNGCWDGFDYDPETSDDSLESSDYDPENSKNSSRSKTKCLFIQMEFCDKGTLEQWIEKRRGEKLDKVLALELFEQITKGVDYIHSKKLIHRDLKPSNIFLVDTKQVKIGDFGLVTSLKNDGKRTRSKGTLRYMSPEQISSQDYGKEVDLYALGLILAELLHVCVTAFETSKFFTDLRDGIISDIFDKKEKTLLQKLLSKKPEDRPNTSEILRTLTVWKKSPEKNERHTC [D486V] | decreasing interaction strength
